Assay results as given in patent publication US20200199241A1 (Chugai, published 2020).
Numbering of substitutions follows the chain as printed.

B1: IgG1-F902 (antibody)
heavy: QVQLQESGPGLVKPSETLSLTCAVSGHSISHDHAWSWVRQPPGEGLEWIGFISYSGITNYNPSLQGRVTISRDNSKNTLYLQMNSLRAEDTAVYYCARSLARTTAMDYWGEGTLVTVSSASTKGPSVFPLAPSSKSTSGGTAALGCLVKDYFPEPVTVSWNSGALTSGVHTFPAVLQSSGLYSLSSVVTVPSSSLGTQTYICNVNHKPSNTKVDKKVEPKSCDKTHTCPPCPAPELLGGPSVFLFPPKPKDTLYISRTPEVTCVVVDVSHEDPEVKFNWYVDGVEVHNAKTKPREEQYNSTYRVVSVLTVLHQDWLDFKEYKCKVSNKALPAPIEKTISKAKGQPREPQVYTLPPSRDELTKNQVSLTCLVKGFYPSDIAVEWESNGQPENNYKTTPPVLDSDGSFFLYSKLTVDKSRWQQGNVFSCSVMHEALHYHYTQKSLSLSP
light: not shown
notes: EU numbering; copies: 2 + 2
B2: IgG1-F903 (antibody)
heavy: B1 heavy with F318H
light: not shown
notes: EU numbering; copies: 2 + 2
B3: IgG1-F904 (antibody)
heavy: B1 heavy with F318I
light: not shown
notes: EU numbering; copies: 2 + 2
B4: IgG1-F905 (antibody)
heavy: B1 heavy with F318K
light: not shown
notes: EU numbering; copies: 2 + 2
B5: IgG1-F906 (antibody)
heavy: B1 heavy with F318L
light: not shown
notes: EU numbering; copies: 2 + 2
B6: IgG1-F907 (antibody)
heavy: B1 heavy with F318M
light: not shown
notes: EU numbering; copies: 2 + 2
B7: IgG1-F908 (antibody)
heavy: B1 heavy with F318N
light: not shown
notes: EU numbering; copies: 2 + 2
B8: IgG1-F909 (antibody)
heavy: B1 heavy with F318P
light: not shown
notes: EU numbering; copies: 2 + 2
B9: IgG1-F910 (antibody)
heavy: B1 heavy with F318Q
light: not shown
notes: EU numbering; copies: 2 + 2
B10: IgG1-F911 (antibody)
heavy: B1 heavy with F318R
light: not shown
notes: EU numbering; copies: 2 + 2
B11: IgG1-F912 (antibody)
heavy: B1 heavy with F318S
light: not shown
notes: EU numbering; copies: 2 + 2
B12: IgG1-F913 (antibody)
heavy: B1 heavy with F318T
light: not shown
notes: EU numbering; copies: 2 + 2
B13: IgG1-F914 (antibody)
heavy: B1 heavy with F318V
light: not shown
notes: EU numbering; copies: 2 + 2
B14: IgG1-F915 (antibody)
heavy: B1 heavy with F318W
light: not shown
notes: EU numbering; copies: 2 + 2
B15: IgG1-F917 (antibody)
heavy: B1 heavy with N288S, D317N, F318G
light: not shown
notes: EU numbering; copies: 2 + 2
B16: IgG1-F918 (antibody)
heavy: B1 heavy with D282E, D317N, F318G, N386A, N391A
light: not shown
notes: EU numbering; copies: 2 + 2
B17: IgG1-F920 (antibody)
heavy: B1 heavy with N288S, D317N, F318G, N386A, N391A
light: not shown
notes: EU numbering; copies: 2 + 2
B18: IgG1-F921 (antibody)
heavy: B1 heavy with N288E, D317N, F318G, N386A, N391A
light: not shown
notes: EU numbering; copies: 2 + 2
B19: IgG1-F922 (antibody)
heavy: B1 heavy with L237K, S241K, N288E, D317N, F318G, Y438I
light: not shown
notes: EU numbering; copies: 2 + 2
B20: IgG1-F923 (antibody)
heavy: B1 heavy with L237R, S241K, N288E, D317N, F318G, Y438I
light: not shown
notes: EU numbering; copies: 2 + 2
B21: IgG1-F924 (antibody)
heavy: B1 heavy with L237K, S241K, T309Q, Q313A, D317N, F318G, Y438I
light: not shown
notes: EU numbering; copies: 2 + 2
B22: IgG1-F925 (antibody)
heavy: B1 heavy with L237R, S241K, T309Q, Q313A, D317N, F318G, Y438I
light: not shown
notes: EU numbering; copies: 2 + 2
B23: IgG1-F926 (antibody)
heavy: B1 heavy with L237K, S241K, S256T, D317N, F318G, Y438I
light: not shown
notes: EU numbering; copies: 2 + 2
B24: IgG1-F927 (antibody)
heavy: B1 heavy with L237R, S241K, S256T, D317N, F318G, Y438I
light: not shown
notes: EU numbering; copies: 2 + 2
B25: IgG1-F929 (antibody)
heavy: B1 heavy with S256T, T309Q, Q313A, D317N, F318G, Y438I
light: not shown
notes: EU numbering; copies: 2 + 2
B26: IgG1-F930 (antibody)
heavy: B1 heavy with P240D, T252V, N288E, D317N, F318G
light: not shown
notes: EU numbering; copies: 2 + 2
B27: IgG1-F931 (antibody)
heavy: B1 heavy with P240D, T252V, D317N, F318G, Y438I
light: not shown
notes: EU numbering; copies: 2 + 2
B28: IgG1-F932 (antibody)
heavy: B1 heavy with T252V, D317N, F318G
light: not shown
notes: EU numbering; copies: 2 + 2
B29: IgG1-F933 (antibody)
heavy: B1 heavy with L236R, P240D, T252V, D317N, F318G
light: not shown
notes: EU numbering; copies: 2 + 2
B30: IgG1-F934 (antibody)
heavy: B1 heavy with G238K, P240D, T252V, D317N, F318G
light: not shown
notes: EU numbering; copies: 2 + 2
B31: IgG1-F935 (antibody)
heavy: B1 heavy with G239K, P240D, T252V, D317N, F318G
light: not shown
notes: EU numbering; copies: 2 + 2
B32: IgG1-F937 (antibody)
heavy: B1 heavy with P240D, S241K, T252V, D317N, F318G
light: not shown
notes: EU numbering; copies: 2 + 2
B33: IgG1-F938 (antibody)
heavy: B1 heavy with L237K, S241K, D317N, F318G, Y438V
light: not shown
notes: copies: 2 + 2
B34: IgG1-F939 (antibody)
heavy: B1 heavy with L237R, S241K, D317N, F318G, Y438V
light: not shown
notes: copies: 2 + 2
B35: IgG1-F940 (antibody)
heavy: B1 heavy with P240D, T252V, D317N, F318G, Y438V
light: not shown
notes: EU numbering; copies: 2 + 2
B36: IgG1-F942 (antibody)
heavy: B1 heavy with L237K, S241K, T309Q, Q313A, D317N, F318G, Y438V
light: not shown
notes: EU numbering; copies: 2 + 2
B37: IgG1-F943 (antibody)
heavy: B1 heavy with L237R, S241K, T309Q, Q313A, D317N, F318G, Y438V
light: not shown
notes: EU numbering; copies: 2 + 2
B38: IgG1-F944 (antibody)
heavy: B1 heavy with T252V, D317N, F318G, Y438V
light: not shown
notes: EU numbering; copies: 2 + 2
B39: IgG1-F945 (antibody)
heavy: B1 heavy with T252V, V310P, D317N, F318G, Y438V
light: not shown
notes: EU numbering; copies: 2 + 2
B40: IgG1-F946 (antibody)
heavy: B1 heavy with T252V, T309Q, Q313A, D317N, F318G, Y438V
light: not shown
notes: EU numbering; copies: 2 + 2
B41: IgG1-F947 (antibody)
heavy: B1 heavy with T252V, T309Q, V310P, Q313A, D317N, F318G, Y438V
light: not shown
notes: copies: 2 + 2
B42: IgG1-F954 (antibody)
heavy: B1 heavy with D317N, F318G, H437K, Y438V
light: not shown
notes: EU numbering; copies: 2 + 2
B43: IgG1-F957 (antibody)
heavy: B1 heavy with D317N, F318G, H437N, Y438V
light: not shown
notes: EU numbering; copies: 2 + 2
B44: IgG1-F960 (antibody)
heavy: B1 heavy with D317N, F318G, H437R, Y438V
light: not shown
notes: EU numbering; copies: 2 + 2
B45: IgG1-F966 (antibody)
heavy: B1 heavy with S256A, D317N, F318G
light: not shown
notes: EU numbering; copies: 2 + 2
B46: IgG1-F970 (antibody)
heavy: B1 heavy with S256G, D317N, F318G
light: not shown
notes: EU numbering; copies: 2 + 2
B47: IgG1-F971 (antibody)
heavy: B1 heavy with S256H, D317N, F318G
light: not shown
notes: EU numbering; copies: 2 + 2
B48: IgG1-F972 (antibody)
heavy: B1 heavy with S256I, D317N, F318G
light: not shown
notes: EU numbering; copies: 2 + 2
B49: IgG1-F978 (antibody)
heavy: B1 heavy with S256Q, D317N, F318G
light: not shown
notes: EU numbering; copies: 2 + 2
B50: IgG1-F980 (antibody)
heavy: B1 heavy with S256V, D317N, F318G
light: not shown
notes: EU numbering; copies: 2 + 2
B51: IgG1-F987 (antibody)
heavy: B1 heavy with P240D, T252V, T309Q, Q313A, D317N, F318G, Y438V
light: not shown
notes: EU numbering; copies: 2 + 2
B52: IgG1-F988 (antibody)
heavy: B1 heavy with P240D, T252V, N288E, D317N, F318G, Y438V
light: not shown
notes: EU numbering; copies: 2 + 2
B53: IgG1-F989 (antibody)
heavy: B1 heavy with L237R, S241K, V310P, D317N, F318G, Y438V
light: not shown
notes: EU numbering; copies: 2 + 2
B54: IgG1-F990 (antibody)
heavy: B1 heavy with L237R, S241K, T309Q, V310P, Q313A, D317N, F318G, Y438V
light: not shown
notes: EU numbering; copies: 2 + 2
B55: IgG1-F991 (antibody)
heavy: B1 heavy with L237R, S241K, N288E, T309Q, Q313A, D317N, F318G, Y438V
light: not shown
notes: EU numbering; copies: 2 + 2
B56: IgG1-F992 (antibody)
heavy: B1 heavy with L237R, S241K, T309Q, Q313A, D317N, F318G, M430I, Y438V
light: not shown
notes: EU numbering; copies: 2 + 2
B57: IgG1-F993 (antibody)
heavy: B1 heavy with T309Q, Q313A, D317N, F318G, Y438V
light: not shown
notes: EU numbering; copies: 2 + 2
B58: IgG1-F994 (antibody)
heavy: B1 heavy with D317N, F318G, N327G
light: not shown
notes: EU numbering; copies: 2 + 2
B59: IgG1-F995 (antibody)
heavy: B1 heavy with L237R, P240D, S241K, D317N, F318G
light: not shown
notes: EU numbering; copies: 2 + 2
B60: IgG1-F996 (antibody)
heavy: B1 heavy with L237R, P240D, S241K, D317N, F318G, Y438V
light: not shown
notes: EU numbering; copies: 2 + 2

target: T1, soluble human FcRn complexed with β2-microglobulin (human, UniProt P61769 21-119, limits assumed); test: Biacore SPR, pH 7.0;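 further: test antibodies captured on a Protein L chip with human FcRn flowed over as analyte, KD obtained as the ratio of dissociation to association rate constants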
T1 construct: also called hFcRn
Method: A kinetic analysis of binding between human FcRn and the aforementioned antibodies was carried out using the BIACORE™ T100 or T200 surface plasmon resonance system (GE Healthcare). The antibodies being tested were captured on the CM4 Sensor Chip (GE Healthcare) on which a suitable amount of Protein L (ACTIGEN® protein (Alltech)) was suitably immobilized by amine coupling. Next, diluted human FcRn and a running buffer used as a blank were injected to allow the human FcRn to interact with the antibody captured on the sensor chip. A buffer consisting of 50 mmol/L sodium phosphate, 150 mmol/L NaCl and 0.05% (w/v) polysorbate 20 (Tween 20®) (pH 7.0 or pH 7.4) was used for the running buffer, and each buffer was also used to dilute the human FcRn. 10 mmol/L glycine-HCl (pH 1.5) was used to regenerate the sensor chip. All measurements of binding were carried out at 25° C. The KD(M) of each antibody to human FcRn was calculated based on kinetics parameters, i.e., the association rate constant ka (1/Ms) and the dissociation rate constant kd (1/s) calculated from a sensorgram obtained by the measurement. The BIACORE™ T100 or T200 Evaluation Software (GE Healthcare) was used to calculate each parameter.

Row | Kd | Binder
1 | 220 nM | B1
2 | 230 nM | B2
3 | 100 nM | B3
4 | 130 nM | B4
5 | 150 nM | B5
6 | 130 nM | B6
7 | 150 nM | B7
8 | 130 nM | B8
9 | 140 nM | B9
10 | 130 nM | B10
11 | 120 nM | B11
12 | 110 nM | B12
13 | 150 nM | B13
14 | 230 nM | B14
15 | 250 nM | B15
16 | 280 nM | B16
17 | 250 nM | B17
18 | 120 nM | B18
19 | 59 nM | B19
20 | 60 nM | B20

Row | Kd | Binder
21 | 34 nM | B21
22 | 32 nM | B22
23 | 110 nM | B23
24 | 100 nM | B24
25 | 29 nM | B25
26 | 140 nM | B26
27 | 120 nM | B27
28 | 320 nM | B28
29 | 300 nM | B29
30 | 310 nM | B30
31 | 320 nM | B31
32 | 310 nM | B32
33 | 160 nM | B33
34 | 150 nM | B34
35 | 150 nM | B35
36 | 42 nM | B36
37 | 40 nM | B37
38 | 170 nM | B38
39 | 17 nM | B39
40 | 43 nM | B40

Row | Kd | Binder
41 | 11 nM | B41
42 | 530 nM | B42
43 | 770 nM | B43
44 | 800 nM | B44
45 | 310 nM | B45
46 | 2500 nM | B46
47 | 2600 nM | B47
48 | 260 nM | B48
49 | 1300 nM | B49
50 | 180 nM | B50
51 | 40 nM | B51
52 | 69 nM | B52
53 | 14 nM | B53
54 | 9.4 nM | B54
55 | 13 nM | B55
56 | 51 nM | B56
57 | 38 nM | B57
58 | 280 nM | B58
59 | 290 nM | B59
60 | 130 nM | B60
